Experimental data as given in article PMC5709234 (Journal of the American Society for Mass Spectrometry, 2017).
“And” between values parts separate entries of the source, which are not always exact repeats. Equal entries are not always repeated. Where two headings read alike, the source gives them in different places.

B1: Enolase 1 (S. cerevisiae) (enzyme, UniProt P00924 2-437, looked up)
chain: AVSKVYARSVYDSRGNPTVEVELTTEKGVFRSIVPSGASTGVHEALEMRDGDKSKWMGKGVLHAVKNVNDVIAPAFVKANIDVKDQKAVDDFLISLDGTANKSKLGANAILGVSLAASRAAAAEKNVPLYKHLADLSKSKTSPYVLPVPFLNVLNGGSHAGGALALQEFMIAPTGAKTFAEALRIGSEVYHNLKSLTKKRYGASAGNVGDEGGVAPNIQTAEEALDLIVDAIKAAGHDGKVKIGLDCASSEFFKDGKYDLDFKNPNSDKSKWLTGPQLADLYHSLMKRYPIVSIEDPFAEDDWEAWSHFFKTAGIQIVADDLTVTNPKRIATAIEKKAADALLLKVNQIGTLSESIKAAQDSFAAGWGVMVSHRSGETEDTFIADLVVGLRTGQIKTGAPARSERLAKLNQLLRIEEELGDNAVFAGENFHHGDKL
B2: Pyruvate kinase type III (Oryctolagus caniculus) (enzyme)
chain: not shown

Tests used:
[1] = target: the molecule itself; test: native MS
[2] = target: the molecule itself; test: native MS; remark: listed apart in the source

| Protein | stoichiometry N [1] | stoichiometry N [2] |
| --- | --- | --- |
| B1 | 2 |  |
| B2 |  | 2 and 4 |
